Key:
[1] = biological target: Human metapneumovirus matrix protein (M), untagged (human metapneumovirus, strain NL1-00); experiment: negative-stain electron microscopy, 2D class averages; free M in samples of 7.2 μM M incubated with 400 μM DOPC for 7 days at 37°C; 2% uranyl acetate
[2] = biological target: Human metapneumovirus matrix protein (M), untagged (human metapneumovirus, strain NL1-00); experiment: crystal structure; 2.8 Å, space group P3_(1); crystals from 20% PEG 6000, 100 mM Tris pH 8.0, 10 mM zinc chloride, 20°C; mixture of intact and proteolysed untagged M
[3] = biological target: Human metapneumovirus matrix protein (M), untagged (human metapneumovirus, strain NL1-00); experiment: SAXS; untagged M in 1 M NaCl buffer, or as 9:1 mixture with SUMO-3C-M in 1 M NDSB-201 buffer; 1 to 4 mg/ml; 20°C, BM29 ESRF; fitted with MD-based ensemble optimisation

Measured: stoichiometry N

Human metapneumovirus matrix protein (M), untagged (natural protein)
2: all assays above

From publication PMC3887258
